US11254722B2, “Recombinant proteins and uses thereof” (ACADEMIA SINICA, priority 2017, dated 2022)
Read-outs that look alike come from different tables or passages of the source.

Assays:
[1] = molecular target: T1, IGF-1 (Homo sapiens, UniProt P05019); test: Biacore binding to IGF-1; details: experiment 4-79
T1 construct: purchased R&D Sciences or SinoBiologicals
Protocol: Biacore binding was performed at David Myszka's laboratory at the University of Utah or at the Genomic Research Center at Academia Sinica. Surfaces of binding protein chimera were made via chemical immobilization on a CM4 chip using standard amine coupling chemistry. […] Excess surface carboxyl activated sites on all four flow cells was blocked using the doubly positively charged species ethylenediamine. Binding experiments (but not immobilizations) in HBS-P (10 mM HEPES pH 7.4, 150 mM NaCl, 0.05% P20), The HBS-P was supplemented with BSA at 0.2 mg/mL, or HBS-P was supplemented with 500 mM NaCl (650 mM NaCl, final concentration). Analytes were also reconstituted in the corresponding buffer. All experiments were performed at 25° C. 1/150 dilutions of phosphoric acid were used to regenerate IGFBP3-Fc surfaces and a sequence of 3 M MgCl2 followed by 5 M GuCl was used to regenerate surfaces immobilized with growth factor. Dissociation constants reported below used immobilized binding protein unless noted. Differences between binding constants may be expected between growth factor immobilization and chimera immobilization.

[2] = estimated; reference 26; cited from earlier work
[3] = tested on: hep3B cells; test: hep3B proliferation assay; type: cell-based, human; details: for EC50: FIG. 11C, read-out: ECK for FBS-induced proliferation; for IC50: Table 10
Procedure, shortened: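 Cells seeded at 1,000 to 6,000 per well in DMEM/F12 with 0.2% BSA and 10 ug/ml transferrin. Inhibitors added 16-20 h after plating; IGF-1 or other growth factors at plating or 16-20 h later. After 3 to 4 days, growth read by Alamar blue fluorescence at 544/590 nm after 4 to 6 h.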

[4] = tested on: A549 lung carcinoma cells; test: A549 proliferation assay; type: cell-based
Protocol: (§1) MCF-7 cells (a breast cancer cell line) were maintained in MEM (GIBCO) plus insulin and NEAA and 10% FBS (Hyclone).
(§2) For the proliferation assay, cells except for HUVEC were seeded at a density of 1,000 to 6,000 in 96 wells in an assay buffer of DMEM/F12 plus 0.2% BSA and 10 ug/ml transferrin. Chemical inhibitors were added after 16-20 hours after plating; IGF-1 or other growth factors or test chimeras in assay buffer were added at the time of plating or 16-20 hours after plating. 5,000 HUVEC ells were plated in poly-L-lysine coated 96 wells in M199 with 1%/FBS and HEPES. After 3 to 4 days of culture, growth was determined by incubating cells with Alamar blue for 4 to 6 hours and then the fluorescence (RFU) at 544/590 nm was read. For long term proliferation assays, cells were plated in the growth media with 5% or 10% FBS at densities of 500 to 10,000 cells per cm^2 growth area and grown for 7 to 21 days. Inhibitors and effectors were added 1-4 days after plating. Cells were exposed to cisplatin or gemcitabine for two days. Medium was renewed twice weekly. At completion, cells were fixed and then stained with Giemsa.
Since the A549 cell line contains a KRAS mutation, it is expected that A549 cells be resistant to TKIs such as AZD9291 and erlotinib. MEK inhibitors such as trametinib were designed to target the RAS/MEK/ERK pathway. […]

[5] = tested on: HT29 cells; test: HT29 proliferation assay; type: cell-based, human
Protocol: as §1, §2
The combination of drug (erlotinib and vemurafenib in hep3b and HT29 cells, respectively) and chimera can be synergistic; so, in addition to enhancing the inhibition, the chimera addition may also lower drug concentration requirements and reduce side effects.

[6] = tested on: HUH7; test: HUH7 survival and growth with TKI; type: cell-based, human; details: FIG. 21
Protocol: as §1, §2
(§3) The addition of chimera D3 to gefitinib reduced this number by about 100-fold.

[7] = tested on: PC-91R; test: PC-91R gefitinib-resistant cell proliferation; type: cell-based; details: FIG. 24A, FIG. 24B
Protocol: as §2
One mechanism of EGFR TKI resistance is the transition from an epithelial to mesenchymal phenotype (16). […] Consequently, a combination of chimera D3 and TKI may limit the resistance caused by epithelial to mesenchymal transition.

[8] = tested on: Hep3B cells; test: Hep3B subcutaneous tumors in NOD-Scid mice; type: in vivo
Protocol: Hep3B cells were infected with GFP-luciferase lentivirus. The cells with highest GFP expression were selected by FACS sort, and the resulting population was expanded. Two million hep3B cells mixed with Matrigel were injected subcutaneously in NOD-Scid mice, and measurable signal was obtained after 7 days. Treatment began at 8 days after injection (day 0). Luciferase was measured as per the standard Xenogen protocol. IGFBP3.Fc D3 (i.e., the 3(del3)3 chimera) at 20 mg/kg was injected twice weekly; saline was injected in the control group. Tumor growth was measured twice weekly by measuring the luminescence. […]

[9] = tested on: A431; test: A431 survival and growth with TKI; type: cell-based, human; details: FIG. 21
Protocol: as §1, §2, §3

[10] = tested on: PC-9 non-small cell lung cancer cells; test: PC-9 subcutaneous tumors in NSG mice, daily erlotinib; type: in vivo; details: chimera D3 plus erlotinib
Protocol: (§4) 5×10exp6 PC-9 non-small cell lung cancer cells were injected subcutaneously in Nod scid gamma (NSG) mice. […] Erlotinib in 6% captisol was dosed orally daily at 25 mg/kg; IGFBP3Fc (3(del3)3) was dosed intraperitoneally at 25 mg/kg three times per week; control animals were administered vehicle. Dosing was started on day 11; erlotinib and erlotinib plus D3 was discontinued on day 19; D3 injections were discontinued on day 22.

[11] = tested on: H1975-T790M gefitinib-resistant; test: H1975 survival and growth with TKI; type: cell-based, human; details: FIG. 21
Protocol: as §1, §2, §3

[12] = tested on: PC-9 cells; test: PC-9 proliferation and clonal density assays; type: cell-based, human
Protocol: as §1, §2
Proliferation assays at clonal densities allows measurement of these DTPs. PC-9 cells are a human non-small cell lung cancer line with a EGFR deletion with high sensitivity to EGFR TKI's (24).

[13] = tested on: PC-9 tumors; test: PC-9 subcutaneous tumors in mice, low dose erlotinib; type: in vivo; details: erlotinib 25 mg/kg 3 times per week; FIG. 27
Protocol: as §4
Subcutaneous PC-9 tumors were generated and measured as above. Chimera D3 was dosed as above; erlotinib was dosed at 25 mg/kg 3 times per week in order to examine the effect of the chimera D3 on the tumor growth with suboptimal erlotinib dosing. The treatment started on day 8 and ended on day 22.

[14] = number of tumors, increase in the tumor size
[15] = number of tumors, no measurable tumor
[16] = number of tumors, partial regression means a 20% or greater decrease in the tumor size

T1 sequence (P05019 49-118 limits assumed): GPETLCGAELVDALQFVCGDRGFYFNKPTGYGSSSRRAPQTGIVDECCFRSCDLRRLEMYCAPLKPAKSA

IGFBP3: insulin-like growth factor-binding protein-3, wild-type (SEQ ID NO: 1) [reference compound]
Kd [1]: 0.363 nM | serum half-life [2]: 25 min | EC50 ([3]; hep3B): 200 nM

B1: chimera D3: IGFBP3 with IGFBP3 linker deletion 3-Fc, SEQ ID NO: 12 (protein)
chain: MSEVPVARVWLVLLLLTVQVGVTAGGASSAGLGPVVRCEPCDARALAQCAPPPAVCAELVREPGCGCCLTCALSEGQPCGIYTERCGSGLRCQPSPDEARPLQALLDGRGLCVNASAVSRPAPPAPGNASESEEDRSAGSVESPSVSSTHRVSDPKFHPKGHAKVDYESQSTDTQNFSSESKRETEYGPCRREMEDTLNHLKFLNVLSPRGVHIPNCDKKGFYKKKQCRPSKGRKRGFCWCVDKYGQPLPGYTTKGKEDVHCYSMQSKVECPPCPAPPVAGPSVFLFPPKPKDQLMISRTPEVTCVVVDVSHEDPEVKFNWYVDGVEVHNAKTKPREEQYNSTYRVVSVLTVLHQDWLNGKEYKCKVSNKGLPSSIEKTISKAKGQPREPQVYTLPPSREEMTKNQVSLTCLVKGFYPSDIAVEWESNGQPENNYKTTPPVLDSDGSFFLYSKLTVDKSRWQQGNVFSCSVMHEGLHNHYTQKSLSLSPGK
A549 growth on addition to cisplatin ([4]; FIG. 18B): further inhibited | growth of A549 lung carcinoma cells ([4]; alone, or in combination with the TK (AZD9291, trametinib), FIG. 18A): reduced the growth | inhibition with vemurafenib in HT29 cells ([5]; FIG. 17A isobologram, FIG. 17B): synergistic inhibition | cancer cell survival and growth on addition to TKI ([5]; HT29, FIG. 21): further inhibited | cancer cell survival and growth on addition to TKI [6]: further inhibited | sensitivity of gefitinib-resistant PC-91R cells to gefitinib [7]: restored the cancer cells' sensitivity to gefitinib | hep3B tumor growth compared with control mice ([8]; 20 mg/kg twice weekly, luminescence, FIG. 25): grew more slowly | T/C (tumor volume treated/control) ratio ([8]; D3 alone, day 25): 63% | tumor growth inhibition ([8]; D3 alone, day 25, p value of 0.0025): 37% | Progression, Day 12 [8, 14]: 5 | Progression, Day 22 [8, 14]: 4 | Complete regression, Day 12 [8, 15]: 2 | Complete regression, Day 22 [8, 15]: 3 | Partial regression, Day 12 [8, 16]: 1 | Partial regression, Day 22 [8, 16]: 1 | cancer cell survival and growth on addition to TKI [9]: further inhibited | tumor growth after erlotinib treatment was stopped on day 19, compared to the erlotinib group ([10]; FIG. 26): delayed tumor growth | tumor volume of treated to control (T/C) ([10]; day 20): 32% | cancer cell survival and growth on addition to TKI [11]: further inhibited | decrease of the IC50 of gefitinib ([12]; 200 nM D3Fc, PC-9, four-day assay, FIG. 19A): 70 fold | bFGF and HGF rescue of osimertinib-treated PC-9 cells ([12]; FIG. 23): inhibited such rescue | clonal density assay with gefitinib ([12]; PC-9, FIG. 19B): decreased the IC50 and reduced surviving cells | IGF1-induced cell survival under gefitinib ([12]; PC-9, FIG. 20): dramatically reduced | cell growth with bFGF under gefitinib ([12]; PC-9, FIG. 20): substantially reduced cell growth | cancer cell survival and growth on addition to TKI ([12]; PC-9, FIG. 21): further inhibited | reduction of the number of PC-9 cells surviving gefitinib ([12]; addition of chimera D3 to gefitinib): about 100 fold | tumor inhibition on addition of chimera D3 to erlotinib [13]: clearly improved the tumor inhibition | hep3B proliferation on co-treatment with doxorubicin ([3]; 0.01 uM doxorubicin plus chimera D3): reduced proliferation even further | hep3B proliferation on co-treatment with erlotinib, sorafenib or afatinib ([3]; 2 uM erlotinib, 2 uM sorafenib, or 0.15 uM afatinib, FIG. 16B): further reduced cell proliferation | proliferation of hep3B cells treated with chimera alone vs no inhibitor ([3]; FIG. 16B): reduced significantly | IC50 ([3]; read-out: IC50, FBS-stimulated proliferation of hep3B cells): 105 nM | IC50 ([3]; read-out: IC50, HGF-stimulated proliferation of hep3B cells): 47 nM | IC50 ([3]; read-out: IC50, IGF1-stimulated proliferation of hep3B cells): 28 nM | IC50 ([3]; read-out: IC50, bFGF-stimulated proliferation of hep3B cells): 69 nM | IC50 ([3]; read-out: IC50, nrg-stimulated proliferation of hep3B cells): 78 nM | bFGF, IGF1, bFGF/IGF1, HGF and HGF/IGF rescue of erlotinib-treated hep3b cells ([3]; clonal proliferation assay, FIG. 22B): inhibited | inhibition of hep3B cells treated with erlotinib ([3]; combination with erlotinib, FIG. 15, FIG. 16A): synergistically inhibited | EC50 ([3]; hep3B): 85 nM | cancer cell survival and growth on addition to TKI ([3]; hep3B, FIG. 21): further inhibited
